# Results published in US20110223107A1.
# T1: Fc-fused truncated mutant of KAAG1 spanning amino acids 1-35 (human)
# T1 sequence: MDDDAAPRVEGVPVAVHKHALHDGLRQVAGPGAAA
# Target: T1, Fc-fused truncated mutant of KAAG1 spanning amino acids 1-35 (human)
# Assay: ELISA
row,OD450,Binder
1,0.33,"Fab of well E10 (Omniclonal AL0003Z1 plate) (Fab, V domains shown) VH: EVQLQQSGPELVKPGASVKISCKASGDTFTDYYMNWVKQSHGKSLEWIGDINPNYGGITYNQKFKGKATLTVDTSSSTAYMELRGLTSEDSAVYYCQAYYRNSDYWGQGTTLTVSS VL: DIVMTQAAPSVPVTPGESVSISCRSSKSLLHSNGNTYLYWFLQRPGQSPQLLIYRMSNLASGVPDRFSGSGSGTAFTLRISRVEAEDVGVYYCMQHLEYPYTFGGGTKLEIK"

# Target: Fc-0447 1-60 (human) (UniProt Q9UBP8)
# Assay: ELISA
row,Binder,OD450
1,"3D3 mouse anti-KAAG1 Fab (Fab, V domains shown) VH: EVQLQQSVAELVRPGASVTLSCKASGYIFTDYEIHWVKQTPVHGLEWIGVIDPETGNTAFNQKFKGKATLTADISSSTAYMELSSLTSEDSAVYYCMGYSDYWGQGTTLTVSS VL: DIVMTQSPSSLAVSIGQKVTMNCKSSQSLLNSNFQKNFLAWYQQKPGQSPKLLIYFASTRESSIPDRFIGSGSGTDFTLTISSVQAEDLADYFCQQHYSTPLTFGAGTKLELK",1.33
2,"G12 (Fab, V domains shown) VH: EVQLQQSVAELVRPGASVTVSCKASGYIFTDYEIHWVKQTPAHGLEWIGVIDPETGNTAFNQKFKGKATLTADISSSTAYMELSSLTSEDSAVYYCMGYSDYWGQGTTLTVSS VL: DIVMTQSPKFMSTSVGDRVSITCKASQDVGTAVAWYQQKPGQSPELLIYWTSTRHTGVPDRFSGSGSGTDFTLTISSVQAEDLADYFCQQHYSIPLTFGAGTKLELR",1.52
3,"3C4 mouse anti-KAAG1 Fab (Fab, V domains shown) VH: EVQLQESGPDLVKPSQSLSLTCTVTGFSITSGYGWHWIRQFPGNKLEWMGYINYDGHNDYNPSLKSRISITQDTSKNQFFLQLNSVTTEDTATYYCASSYDGLFAYWGQGTLVTVSA VL: DIVMSQSPSSMYASLGERVTITCKASQDIHNFLNWFQQKPGKSPKTLIFRANRLVDGVPSRFSGSGSGQDYSLTISSLEFEDLGIYSCLQYDEIPLTFGAGTKLELR",0.57
4,"A9 (Fab, V domains shown) VH: QVQVQQPGAELVRPGASVTLSCKASGYIFTDYEVHWVRQRPVHGLEWIGVIDPETGDTAYNQKFKGKATLTADKSSSTAYMELSSLTAEDSAVYYCIGYADYWGQGTTLTVSS VL: DIVMTQSPSSLAMSLGQKVTMSCKSSQSLLNSNNQLNYLAWYQQKPGQSPKLLVYFASTRKSGVPDRFIGSGSGTDFTLTITSVQAEDLADYFCQQHFNTPLTFGAGTKLELK",2.29

# Other lines, results leading:
row,OD450,Binder
1,0.48,"Fab of well C2 (Omniclonal AL0003Z1 plate) (Fab, V domains shown) VH: DVQLQESGPDLVKPSQSLSLTCTVTGFSITSGYGWHWIRQFPGNKLEWMGYISFNGDSNYNPSLKSRISITRDTSKNQFFLQLNSVTSEDTATYYCASSYDGLFAYWGQGPLVTVSA VL: DIQMTQSPSSMYASLGERVTLTCKASQDIHNYLNWFQQKPGKSPKTLIHRANRLVAGVPSRFSGSGSGQDYSLTISSLEYEDLGIYYCLQYDAFPLTFGAGTKLELK"
2,0.27,"Fab of well D1 (Omniclonal AL0003Z1 plate) (Fab, V domains shown) VH: EVQLQESGPDLVKPSQSLSLTCTVTGFSITSGYGWHWIRQFPGDKLEWMGYISFNGDYNYNPSLKSRISITRDTSKNQFFLQLSSVTTEDTATYYCASSYDGLFAYWGQGTLVTVSA VL: DIKMTQSPSSMYASLGERVTITCKASQDIHTYLNWFQQKPGKSPETLIYRANRLVDGVPSRFSGSGSGQDYSLTISSLEYEDMGIYYCLQYDEFPLTFGAGTKLELK"
